Experimental data taken from patent publication US20260284221 (published 2026).
Numbering of substitutions follows the chain as printed.

Experiments:
Test in all cases: BLI pH 7.4
[1] = target: T1, Rat Trop2 (rat, UniProt Q6P9Z6)
T1 chain: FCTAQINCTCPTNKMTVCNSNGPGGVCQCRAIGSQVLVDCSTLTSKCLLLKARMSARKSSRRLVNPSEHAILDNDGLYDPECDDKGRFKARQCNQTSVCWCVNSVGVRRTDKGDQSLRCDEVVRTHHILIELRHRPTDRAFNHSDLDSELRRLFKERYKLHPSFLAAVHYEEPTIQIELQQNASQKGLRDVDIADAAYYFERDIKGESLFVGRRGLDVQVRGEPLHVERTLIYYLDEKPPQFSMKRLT

[2] = target: T2, Mouse Trop2 (mouse, UniProt Q8BGV3)
T2 chain: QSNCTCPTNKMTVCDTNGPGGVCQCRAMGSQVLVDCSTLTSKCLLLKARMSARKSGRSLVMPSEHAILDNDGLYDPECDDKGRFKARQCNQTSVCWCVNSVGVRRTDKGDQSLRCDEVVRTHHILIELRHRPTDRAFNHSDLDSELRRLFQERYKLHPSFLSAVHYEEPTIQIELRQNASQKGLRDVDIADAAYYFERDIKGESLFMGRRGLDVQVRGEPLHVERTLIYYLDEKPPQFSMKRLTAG

[3] = target: T3, Rhesus macaque Trop2 (rhesus macaque)
T3 chain: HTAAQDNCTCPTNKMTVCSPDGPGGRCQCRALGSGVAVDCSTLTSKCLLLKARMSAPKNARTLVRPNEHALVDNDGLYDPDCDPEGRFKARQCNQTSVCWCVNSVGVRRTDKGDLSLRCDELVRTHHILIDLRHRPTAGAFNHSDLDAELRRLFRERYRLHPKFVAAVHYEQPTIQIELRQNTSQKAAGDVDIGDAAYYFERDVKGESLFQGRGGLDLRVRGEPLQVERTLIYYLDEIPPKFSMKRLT

[4] = target: T4, Human Trop2 (human, UniProt P09758)
T4 chain: T3 chain with V36M, N67S, V204I

B1: L2-conjugated anti-Trop2 antibody (IB12) (antibody, V domains shown)
VH: EVQLVESGGGLVQPGGSLRLSCAASGFTFNNYAMSWVRQAPGKGLEWVSTISSDGTYTYYADSVKGRFTISRDNSKNTLYLQMNSLRAEDTAVYYCARHPPSYYYAFDYWGQGTTLTVSS
VL: EIVLTQSPGTLSLSPGERATLSCRASESVDSYGNSFIHWYQQKPGQAPRLLIYLASNLESGIPDRFSGSGSGTDFTLTISRLEPEDFAVYYCQQNNEDLWTFGGGTKLEIK
modifications: conjugated with L2 linker; heavy constant SEQ2, light constant SEQ4
Which results are given for B1?
binding result [1]: no binding; binding result [2]: no binding; Kd [3]: < 0.001 nM; Kd [4]: 22.6 nM
